Consider four substances from PMC6792133.

The target in experiment [1] is Capsicum annuum phosphatidylinositol 4-kinase type II (CaPI4KII), yeast two-hybrid fusion (Capsicum annuum).
The target in experiment [2] is NbPI4KII-mGFP (Nicotiana benthamiana).
The target is the same in experiment [3]. The experiment is described as follows: FRET or BRET; FRET in agroinfiltrated N. benthamiana leaf epidermal cells, 3 dpi; mGFP donor, DsRed acceptor; Olympus FluoView FV1000. (In general: In BRET a luciferase serves as donor, and the signal depends on an acceptor being close.)
The target is the same in experiment [4]. The source holds these as a separate data set.

Regarding “ChiLCV Rep1-180-DsRed (domain or fragment)”, the percentage of cells with CaPI4KII-mGFP restricted to the nucleus when co-expressed with Rep1-180-DsRed in experiment [1] was determined as 61%. In experiment [2], this substance came in with a percentage of cells with NbPI4KII-mGFP exclusively inside the nucleus when co-expressed with Rep1-180-DsRed (N = 16) of 87%. Also, the FRET efficiency in experiment [3] is 43%.

As to “ChiLCV Rep1-120-DsRed (domain or fragment)”, the FRET efficiency in experiment [3] is 72%.

In turn, ChiLCV Rep-DsRed (natural protein) came in with an FRET efficiency in experiment [3] of 47%. Moreover, in experiment [4], the percentage of cells with NbPI4KII-mGFP only inside the nucleus when co-expressed with Rep-DsRed (N. benthamiana epidermis, N = 19) turned out to be 63%.

On to “ChiLCV Rep181-361-DsRed (domain or fragment)”, for which the percentage of cells with CaPI4KII-mGFP restricted to the nucleus when co-expressed with Rep181-361-DsRed in experiment [1] came out at 41%. Further, the percentage of cells in which NbPI4KII-mGFP was redirected into the nucleus when co-expressed with Rep181-361-DsRed (N = 17) in experiment [2] stood at 78%. The same substance registered an FRET efficiency in experiment [3] of 76%.
